This series deals with E2F-1 (UniProt Q01094). The experiment in a line: cell_activity. The conditions noted are these: CHO cells, -T antigen; CAT/bGAL 5.2 vs 2.6.
E2F-1, sequence (Q01094 whole entry): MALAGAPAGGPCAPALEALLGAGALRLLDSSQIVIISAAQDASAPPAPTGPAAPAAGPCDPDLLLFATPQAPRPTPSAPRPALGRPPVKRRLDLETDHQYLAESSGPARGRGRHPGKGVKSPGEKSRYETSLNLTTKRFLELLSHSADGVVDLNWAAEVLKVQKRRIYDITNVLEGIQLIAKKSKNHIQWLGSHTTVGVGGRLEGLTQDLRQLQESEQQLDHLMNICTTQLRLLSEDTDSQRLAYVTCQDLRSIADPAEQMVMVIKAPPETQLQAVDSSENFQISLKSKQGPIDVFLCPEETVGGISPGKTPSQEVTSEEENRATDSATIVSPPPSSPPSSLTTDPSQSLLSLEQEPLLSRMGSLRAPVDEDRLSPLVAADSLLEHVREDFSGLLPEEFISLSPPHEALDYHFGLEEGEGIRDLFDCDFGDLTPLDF

HGAPDH promoter (-487 to +21)-CAT showed an activity of 2 fold.

Values taken from patent publication US5496831.
